Changes are numbered by the printed parent chain. Names and notes keep the numbering of the source.
What was measured:
Details in all cases: one partner purified
[1] = molecular target: tetanus toxoid (Clostridium tetani, strain  …, UniProt P04958); test: SPR
Target sequence in this assay (P04958 whole entry): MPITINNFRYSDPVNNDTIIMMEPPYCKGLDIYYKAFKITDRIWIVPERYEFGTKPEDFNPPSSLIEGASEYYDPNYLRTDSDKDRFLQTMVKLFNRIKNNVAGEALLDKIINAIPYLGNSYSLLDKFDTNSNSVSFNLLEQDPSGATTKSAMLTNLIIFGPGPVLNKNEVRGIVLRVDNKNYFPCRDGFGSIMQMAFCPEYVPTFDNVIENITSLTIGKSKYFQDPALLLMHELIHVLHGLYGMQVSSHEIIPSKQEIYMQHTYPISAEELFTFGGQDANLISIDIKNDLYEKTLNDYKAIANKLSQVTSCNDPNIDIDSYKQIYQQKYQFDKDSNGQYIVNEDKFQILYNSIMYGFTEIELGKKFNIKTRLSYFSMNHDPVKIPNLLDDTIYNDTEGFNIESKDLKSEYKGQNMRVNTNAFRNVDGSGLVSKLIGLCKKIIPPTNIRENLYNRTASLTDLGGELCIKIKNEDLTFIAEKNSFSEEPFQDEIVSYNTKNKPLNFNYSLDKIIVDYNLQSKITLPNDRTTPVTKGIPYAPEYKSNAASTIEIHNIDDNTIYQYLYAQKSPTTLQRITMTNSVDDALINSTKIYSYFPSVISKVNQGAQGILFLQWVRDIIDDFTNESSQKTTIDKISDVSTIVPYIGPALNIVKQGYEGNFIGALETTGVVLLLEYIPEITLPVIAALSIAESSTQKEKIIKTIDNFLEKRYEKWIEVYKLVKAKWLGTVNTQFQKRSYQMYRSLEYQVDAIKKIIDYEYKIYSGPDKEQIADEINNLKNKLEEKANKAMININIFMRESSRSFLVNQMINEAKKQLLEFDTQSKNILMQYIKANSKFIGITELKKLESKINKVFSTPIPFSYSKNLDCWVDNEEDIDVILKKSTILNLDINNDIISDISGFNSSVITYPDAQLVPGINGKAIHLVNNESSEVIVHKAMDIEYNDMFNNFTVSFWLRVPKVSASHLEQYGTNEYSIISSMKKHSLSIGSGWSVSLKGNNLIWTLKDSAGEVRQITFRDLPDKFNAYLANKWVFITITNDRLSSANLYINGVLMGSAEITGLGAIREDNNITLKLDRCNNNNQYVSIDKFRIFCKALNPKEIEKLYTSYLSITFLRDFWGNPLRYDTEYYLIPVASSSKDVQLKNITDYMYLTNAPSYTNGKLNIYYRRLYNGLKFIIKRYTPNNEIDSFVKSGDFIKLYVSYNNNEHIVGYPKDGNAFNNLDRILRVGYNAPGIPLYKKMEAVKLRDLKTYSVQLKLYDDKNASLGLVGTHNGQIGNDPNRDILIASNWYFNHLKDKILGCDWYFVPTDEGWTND

[2] = molecular target: T1, tetanus toxoid (Clostridium tetani, strain  …, UniProt P04958); test: ELISA
T1 sequence (P04958 1-457, chain 1 of 2): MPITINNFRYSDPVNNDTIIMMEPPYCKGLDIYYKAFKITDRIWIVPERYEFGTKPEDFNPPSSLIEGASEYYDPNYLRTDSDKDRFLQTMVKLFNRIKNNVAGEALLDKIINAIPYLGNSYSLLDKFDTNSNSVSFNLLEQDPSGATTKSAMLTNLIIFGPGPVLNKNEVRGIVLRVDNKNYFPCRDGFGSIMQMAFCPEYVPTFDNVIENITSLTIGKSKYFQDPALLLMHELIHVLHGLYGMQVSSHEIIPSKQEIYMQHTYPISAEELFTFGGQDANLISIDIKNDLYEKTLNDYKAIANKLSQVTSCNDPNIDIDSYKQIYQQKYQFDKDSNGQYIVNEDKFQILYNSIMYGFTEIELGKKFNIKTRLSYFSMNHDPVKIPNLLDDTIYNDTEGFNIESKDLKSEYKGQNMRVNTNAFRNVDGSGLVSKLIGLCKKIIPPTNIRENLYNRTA
T1 sequence (P04958 458-1315, chain 2 of 2): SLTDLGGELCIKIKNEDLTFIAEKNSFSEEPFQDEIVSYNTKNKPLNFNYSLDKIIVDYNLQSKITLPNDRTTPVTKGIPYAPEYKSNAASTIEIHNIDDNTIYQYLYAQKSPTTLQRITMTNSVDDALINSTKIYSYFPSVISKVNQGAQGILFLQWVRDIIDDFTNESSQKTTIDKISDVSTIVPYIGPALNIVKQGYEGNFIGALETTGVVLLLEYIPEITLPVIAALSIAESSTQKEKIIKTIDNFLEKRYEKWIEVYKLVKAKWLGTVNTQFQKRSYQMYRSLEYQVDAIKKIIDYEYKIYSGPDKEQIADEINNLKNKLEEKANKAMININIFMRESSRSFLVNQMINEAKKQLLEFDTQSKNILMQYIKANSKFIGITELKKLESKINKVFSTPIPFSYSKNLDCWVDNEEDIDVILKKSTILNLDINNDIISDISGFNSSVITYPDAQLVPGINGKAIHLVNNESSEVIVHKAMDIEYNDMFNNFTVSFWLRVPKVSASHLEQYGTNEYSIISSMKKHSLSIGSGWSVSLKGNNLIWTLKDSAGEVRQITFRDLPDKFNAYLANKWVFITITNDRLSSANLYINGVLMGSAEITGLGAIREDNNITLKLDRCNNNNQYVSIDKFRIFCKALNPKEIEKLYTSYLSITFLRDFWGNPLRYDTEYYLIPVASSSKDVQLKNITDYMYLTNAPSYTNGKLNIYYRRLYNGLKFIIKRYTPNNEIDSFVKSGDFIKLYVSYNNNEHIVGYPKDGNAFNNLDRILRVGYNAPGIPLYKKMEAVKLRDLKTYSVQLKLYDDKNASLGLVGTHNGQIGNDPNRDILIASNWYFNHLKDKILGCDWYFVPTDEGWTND

[3] = molecular target: T1, tetanus toxoid; test: SPR; remark: listed apart in the source

B1: TT-specific Fab D5O 94 from the phage display library (Fab, V domains shown)
VH: LVKPGASVKIPCKASGYTFTDYNIDWVKQSHGKSLEWIGDINPNNGGTIYNQKFKDKATLTVDKSSSTAYMELRSLTSEDTAVYYCARDFYYGRYFDYWGQGTTLTVSS
VL: TMAASPGEKITITCSATSSISSNYLHWYQQKPGFSPKLLIYRTSNLASGVPARFSGSGSGTSYSLTIGTMEAEDVATYYCQQGSNIPTFGSGTKLELK
Kd [1]: 4.8 nM
koff [1]: 0.00037 s⁻¹
kon [1]: 78000 M⁻¹ s⁻¹

B2: phage display isolate S546 (Fab, V domains shown)
VH: LVAPSQSLSITCTVSGFSLTSYGVHWVRQPPGKGLEWLGVIWPGGSTNYNSALMSRLSISKDNSKSQVFLKMNSLQTDDTAMYYCARDFQYGNYFDYWGQGTTLTVSS
VL: B1 VL with T17S, A52T, N85S, P87S, S91A
binding result [2]: binds

B3: TT-specific Fab S10 from the phage display library (Fab, V domains shown)
VH: LVAPSQSLSITCTVSGFSLTDYGVNWVRQPPGKGLEWLGMIWGDGSTDYNSALKSRLSISKDNSKSQVFLKMNSLQTDDTARYFCVRTFHYGNYFDYWGQGTTLTVSS
VL: TMAASPGEKITITCSASSSISSNYLHWYQQKPGFSPKLLIYRTSNLASGVPARFSGSGSGTSYSLTIGTMEAEDVATYYCQQGSSIPLTFGAGTKLELK
Kd [1]: 12 nM
koff [1]: 0.00032 s⁻¹
kon [1]: 26000 M⁻¹ s⁻¹

B4: phage display isolate S917 (Fab, V domains shown)
VH: LVKPGGSLKLSCAVSGFNFSNYAMSWVRQTPEKRLEWVATISSGGSYIYYPDSVKGRFTISRDNAKNTLYLQMSSLRSEDTAMYYCARQDRYGFALDYWGQGTSVTVSS
VL: SLSASLGDRVTISCRASQDINNYLNWYQQKPDGTIRLLIYYTSRLHSGVPSRFSGSGSGTDYSLTITNLEQEDFATYFCQQGNTLPWAFGGGTKLEIK
binding result [2]: binds

B5: anti-TT mAb of hybridoma P4T29115 (antibody, V domains shown)
VH: EVKLVESGGGLVKPGGSLKLSCAASGITFSNYAMSWVRQTPEKRLEWVATISSGGSYIYYPDSVKGRFTISRDNAKNTLYLQMSSLRSEDTAVYFCARLGYDGVALDYWGQGTSVTVSS
VL: ASLGDRVSISCRASQDIRNYLNWYQQRPDGTVKLLIYYTSRLHSGVPSRFSGSGSGTDYSLTISNLEQEDIATYFCQQGNTFPWTFGGGTKLEIK
binding result [2]: binds

B6: anti-TT mAb of hybridoma 14 (antibody, V domains shown)
VH: VQLQESGPGLVAPSQSLSITCTVSGFSLTSYGVHWVRQPPGKGLEWLGVIWPGGSTNYNSALMSRLSISQDNSKSQVFLKMNSLQIDDTAMYHCARDFQYGNYFDYWGQGTSLTVSS
VL: MPASPGEKITITCSASSSISSNYLHWYQQKPGFSPKLLIYRTSNLASGVPARFSGSGSGTSYSLTVGTMEAEDVATYYCQQGTSIPTFGAGTKLELK
Kd [3]: 3.1 nM
koff [3]: 0.00029 s⁻¹
kon [3]: 94000 M⁻¹ s⁻¹

B7: anti-TT mAb of hybridoma 24 (antibody, V domains shown)
VH: VQLQQTGPGLVQPSQSLSITCTVSAFSLTNYGIHWVRQSPGKGLEWLGVIWTGGSTDYNAPFISRLSISKDNSKSQVFFKMNSLQANDTAIYYCVRDGYRVMDYWGQGTSVTVSS
VL: LSASVGETVTITCRASGNIHNYLAWYQQKQGKSPQLLVYNAKTLTDGVPSRFSGSGSGTQHSLKINSLQPEDFGSYYCQHFWTIPWTFGGGTKLEIK
Kd [3]: 1.9 nM
koff [3]: 0.00016 s⁻¹
kon [3]: 86000 M⁻¹ s⁻¹

Reference: paper PMC4182348 (PLoS ONE, 2014)
